The text below walks through data of patent US6808877B2, “Ligands for FPR class receptors that induce a host immune response to a pathogen or inhibit HIV infection” (priority 2000, dated 2004).

Entries after “also recorded” stand apart in the source; their conditions may differ.

For test [1], the system named is monocytes. Briefly: Monocyte chemotaxis, 48-well micro-chemotaxis chamber. In kind it is cell-based, human. The conditions noted are these: 37° C., 30 min.
The target in the next test is T1, FPRL1 (Homo sapiens, UniProt P25090).
T1 construct: expressed in transfected cells; host or cells: HEK 293
T1 sequence (P25090 1-351): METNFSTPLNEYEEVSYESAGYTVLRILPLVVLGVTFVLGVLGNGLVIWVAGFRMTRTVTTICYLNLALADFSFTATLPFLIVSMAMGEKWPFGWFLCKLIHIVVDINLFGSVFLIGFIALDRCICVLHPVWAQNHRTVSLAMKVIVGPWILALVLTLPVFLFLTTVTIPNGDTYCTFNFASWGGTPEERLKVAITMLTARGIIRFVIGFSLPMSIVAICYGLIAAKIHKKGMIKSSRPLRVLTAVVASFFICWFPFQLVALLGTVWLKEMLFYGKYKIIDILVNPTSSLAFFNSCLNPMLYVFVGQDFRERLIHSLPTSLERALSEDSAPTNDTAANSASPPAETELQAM
It is filed as cell-based. The conditions noted are these: FPRL1/293 cells; 100 ng/ml, 37° C., 30 min.

The target of a further test is T2, FPR (Homo sapiens, UniProt P21462).
T2 construct: H. Ali and R. Snyderman (Duke University); host or cells: RBL-2H3 rat basophilic leukemia cells
T2 sequence (P21462 1-350): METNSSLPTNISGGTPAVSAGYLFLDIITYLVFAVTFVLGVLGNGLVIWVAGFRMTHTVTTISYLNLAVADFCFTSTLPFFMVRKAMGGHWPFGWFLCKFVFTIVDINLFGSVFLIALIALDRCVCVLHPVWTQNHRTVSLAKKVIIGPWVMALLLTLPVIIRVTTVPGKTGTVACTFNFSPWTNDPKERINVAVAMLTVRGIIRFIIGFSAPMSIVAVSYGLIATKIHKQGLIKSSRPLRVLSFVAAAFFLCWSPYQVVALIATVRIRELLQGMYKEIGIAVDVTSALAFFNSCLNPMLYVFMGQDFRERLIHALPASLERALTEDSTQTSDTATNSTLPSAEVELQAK
Put plainly: Migration of ETFR cells. In kind it is cell-based. The settings on record: ETFR cells.

In test [2] the test system is CCR5. Briefly: CCR5 serine phosphorylation in monocytes (anti-phosphoserine IP, anti-CCR5 immunoblot). It is filed as cell-based, human. The conditions noted are these: for MIP-1β-induced CCR5 phosphorylation after preincubation with PKC inhibitor: then MIP-1β 1 min; for serine phosphorylation of CCR5 / time of maximal CCR5 phosphorylation: human monocytes; for serine phosphorylation of CCR5: 37° C. On the procedure: Monocytes were isolated by counter-flow elutriation from the peripheral blood of normal donors (NIH Clinical Center, Transfusion Medicine Department, Bethesda, Md.) and enriched for mononuclear cells by using counter-flow elutriation. The purity of the cell preparations was examined by morphology after cytospin, and was >90%. The cells were stimulated with different concentrations of chemokines for indicated time periods at 37° C. and lysed for 20 min on ice with periodic mixing in lysis buffer (1% Triton X-100, 20 mM, Tris-HCl pH 8.0, 137 mM NaCl, 15% glycerol, 5 mM EDTA) containing phosphatase and protease inhibitors (1 mM phenylmethylsulfonyl fluoride, 5 μg/ml aprotinin, 5 μg/ml leupeptin, 1 mM sodium orthovanadate, 1 mM EGTA). Cell lysates were precleared with 30 µl of washed Protein-A sepherose beads (Pharmacia Biotech. Piscataway, N.J.), 1 μg of polyclonal anti-phospho-serine antibody (Zymed Laboratory Inc. South San Francisco, Calif.) was added to 200 μg cell lysates diluted with 2×immunoprecipitation (IP) buffer (1×buffer contains 1%Triton X-100, 10 mM Tris-HCl pH 7.4, 137 mM NaCl, 1 mM EDTA, 1 mM EGTA, 0.2 mM sodium orthovanadate, 0.2 mM PMSF, 0.5% NP-40). The reaction mixture was incubated at 4° C. overnight under constant rocking. The immune complex was captured by adding 50 μl of washed Protein-A sepharose beads (25 μl packed beads) and incubation of the reaction mixture at 4° C. for additional 2 hours. The beads were spun down (10 seconds at 14,000 rpm), the pellets were washed 3 times with ice-cold IP buffer, resuspended in 30 μl of 2×Laemmli sample buffer (126 mM Tris-HCl, 20% Glycerol, 4% SDS, 0.005% bromophenol blue with or without addition of 1% 2-mercaptoethanol, Novex, San Diego, Calif.) and boiled for 5 min to elute the immune complex. After electrophoresis on 4-12% SDS-PAGE precast gel (Novex), the proteins were transferred to Immobilon P membranes (Millipore, Bedford, Mass.). The membranes were blocked in freshly prepared PBS containing 3% dry milk 2 h, then were incubated with 1 μg/ml of polyclonal anti-CCR5 antibody (Millenium Biotechnology, Ramona, Calif.) overnight at 4° C. followed by washing 3 times with PBS containing 0.05% Tween 20. The membranes were incubated with a horse radish-peroxidase conjugated goat anti-rabbit IgG (1:5000) (Sigma, St. Louis, Mo.) in PBS containing 3% dry milk for 1 hour at room temperature with agitation. After washing 3 times with PBS-0.05% Tween 20, the membranes were incubated with Super Signal Chemiluminescent Substrate Stable Peroxide Solution (Pierce, Rockford, Ill.) for 1 min, and exposed to BIOMAX-MR film (Eastman Kodak Company, Rochester, N.Y.).
Monocytes stimulated with different concentrations of stimulants for indicated time periods at 37° C. were lysed for 20 min on ice with periodic mixing in lysis buffer [1% Triton X-100, 20 mM Tris-HCl (pH 8.0), 137 mM NaCl, 15% glycerol, 5 mM EDTA] containing phosphatase and protease inhibitors (1 mM phenylmethylsulfonyl fluoride, 5 μg/ml aprotinin, 5 μg/ml leupeptin, 1 mM sodium orthovanadate, 1 mM EGTA). Cell lysates were precleaned with 30 μl of washed Protein A Sepharose beads (15 μl packed beads) at 4° C. for 1 hour and 1 μg of polyclonal anti-phosphoserine antibody was added to 200 μg cell lysates diluted with 2×immunoprecipitation (IP) buffer [1×: 1% Triton X-100, 10 mM Tris-HCl (pH 7.4), 137 mM NaCl, 1 mM EDTA, 1 mM EGTA, 0.2 mM […], 0.2 mM PMSF, 0.5% NP-40]. The reaction mixture was incubated at 4° C. overnight under constant rocking. The immunecomplex was captured by adding 50 μl of washed Protein A sepharose beads (25 μl packed beads) and incubating the reaction mixture at 4° C. for an additional 2 hours. […]
On the technique in general: In western blotting, separated proteins are transferred to a membrane and probed.

The test system of test [3] is monocytes. Briefly: Ca2+ mobilization of monocytes in response to chemokines after preincubation (heterologous desensitization). It is filed as cell-based, human. The conditions noted are these: staurosporine 2.5 ng/ml 30 min. On the procedure:
Calcium mobilization was measured by incubating monocytes (2×10^7/ml) in loading medium (DMEM, 10% FCS) with 5 μM Fura-2 AM (Molecular Probes, Eugene, Oreg.) for 30 min at room temperature in the dark. The dye-loaded cells were washed 3 times and resuspended in saline buffer (138 mM NaCl, 6 mM KCl, 1 mM CaCl2, 10 mM Hepes pH 7.4, 5 mM glucose, 0.1% BSA). The cells were then transferred into quartz cuvettes (2×10^6 cells in 2 ml) which were placed in a luminescence spectrometer (LS-50B, Perkin-Elmer, Beaconsfield, UK). Stimulants at different concentrations were added in a volume of 20 μl to each cuvette at the indicated time points. The ratio of fluorescence at 340 and 380 nm was calculated using a FL-WinLab program (Perkin Elmer). To examine the effect of fMLP, monocytes were preincubated with 10^−6 M fMLP or with medium alone for 60 min at 37° C. The cells were thoroughly washed and then were stained with Fura-2 for the calcium mobilization desensitization. The results are representative of at least three experiments performed.
(§1) Calcium mobilization was measured by incubating 2×10^7/ml cells in loading medium (DMEM, 10% FBS) with 5 μM Fura-2 AM (Molecular Probes, Eugene, Oreg.) for 30 min at room temperature in the dark. The dye-loaded cells were washed 3 times with loading medium and resuspended in saline buffer [138 mM NaCl, 6 mM KCl, 1 mM CaCl2, 10 mM HEPES (pH 7.4), 5 mM Glucose, 0.1% BSA] at a concentration of 1×10^6/ml. The cells were then transferred into quartz cuvettes (2 ml) which were placed in a luminescence spectrometer (LS-50B, Perkin-Elmer, Beaconsfield, England). Stimulants at different concentrations were added in a volume of 20 μl to each cuvette at the indicated time points. The ratio of fluorescence at 340 and 380 nm wavelength was calculated using a FL WinLab program (Perkin-Elmer).
In general terms: Calcium assays in cells follow changes in intracellular calcium, usually with a dye or a luminescent sensor.

Test [4] relates to monocytes. Put plainly: Ca2+ mobilization in monocytes (Fura-2). In kind it is cell-based, human. On the procedure: as §1
Calcium mobilization was assayed by incubating 2×10^7/ml of monocytes, neutrophils, FPRL1 or FPR transfectants in loading buffer containing 138 mM NaCl, 6 mM KCl, 1 mM CaCl2, 10 mM HEPES (pH 7.4), 5 mM glucose, 0.1% BSA with 5 μM Fura-2 (Sigma) at 37° C. for 30 min. The dye-loaded cells were washed and resuspended in fresh loading buffer. The cells were then transferred into quartz cuvettes (10^6 cells in 2 ml) which were placed in a luminescence spectrometer LS50 B (Perkin-Elmer Limited, Beaconsfield, England). Stimulants at different concentrations were added in a volume of 20 μl to the cuvettes at indicated time points. The ratio of fluorescence at 340 and 380 nm wavelength was calculated using the FL WinLab program (Perkin-Elmer).

The test system of test [5] is CCR5. In kind it is cell-based, human. The settings on record: HOS/CD4/CCR5 cells co-expressing FPR.
Test [6] relates to CCR5. Briefly: Surface expression of CCR5 on monocytes by flow cytometry. It is filed as cell-based, human. The conditions noted are these: FITC-anti-CCR5 2D7. On the procedure: The change of surface expression of CCR5 on monocytes was monitored by FACS analyses (courtesy of L. […] The cells were then washed twice with DPBS containing 2% BSA and fixed with 1% Paraformaldehyde (Sigma). The fluorescence was measured by flow cytometer (Becton Dickinson, San Jose, Calif.). Results are presented as the percentage of cells stained with anti-CCR5 antibody.

With pertussis toxin, the “chemotaxis response to V3 peptide after preincubation of the cells” value in the test with monocytes [1] (human phagocytes, 100 ng/ml) is reported as “inhibited”. Also, the “migration in response to W peptide after pretreatment of the cells” value with monocytes [1] (phagocytes, 100 ng/ml toxin) was “completely inhibited”. Besides, the “W peptide induced migration after pretreatment of the cells” value on FPRL1 and at FPR was “inhibited” in each case.
On to `CN[C@@H]1C[C@H]2O[C@@](C)([C@@H]1OC)n1c3ccccc3c3c4c(c5c6ccccc6n2c5c31)C(=O)NC4` [staurosporine], for which the “MIP-1β-induced CCR5 phosphorylation after preincubation with PKC inhibitor” value in the test on CCR5 [2] (monocytes) was “did not affect”. In addition, the “V3 peptide-induced CCR5 phosphorylation after pretreatment with PKC inhibitor” value with CCR5 [2] (monocytes, staurosporine 2.5 ng/ml 30 min, then V3 peptide 1.5 μM 60 min) is on record as “no longer significantly induced phosphorylation of CCR5”. In the test on monocytes [3], the “Ca2+ mobilization in response to RANTES or SDF-1α after PKC inhibitor followed by V3 peptide” value is given as “almost normal Ca^2+ mobilization”.
Turning to calphostin C, the “MIP-1β-induced CCR5 phosphorylation after preincubation with PKC inhibitor” value in the test with CCR5 [2] (monocytes) is “little effect”. The “fMLP-induced CCR5 phosphorylation after preincubation with PKC inhibitor” value with CCR5 [2] (monocytes, calphostin C 50 ng/ml 2.5 h, then fMLP 10^−6 M 60 min) is on record as “markedly reduced”.
As to “T20/DP178: synthetic peptide corresponding to a region in the C-terminus of the ectodomain of gp41”, the “serine phosphorylation of CCR5” value in the test on CCR5 [2] was “significant and dose-dependent phosphorylation of CCR5”.
In the case of SDF-1α, the “Ca2+ mobilization” value with monocytes [4] is on record as “significant Ca^2+ mobilization”.
Still for that read-out and setting: the same measure for MCP-1: chemokine: “significant Ca^2+ mobilization”.

B1: MIP-1α: chemokine that activates multiple receptors including CCR5 (protein, UniProt P10147 24-92, looked up)
C-C motif chemokine 3: SLAADTPTACCFSYTSRQIPQNFIADYFETSSQCSKPGVIFLTKRSRQVCADPSEEWVQKYVSDLELSA
Regarding B1, in the test on CCR5 [2], the “time of maximal CCR5 phosphorylation” value was determined as 1 min and the “serine phosphorylation of CCR5” value was “rapidly phosphorylated”. Further, the “phosphorylation of CCR5” value in the test on CCR5 [5] was “induced an increase in phosphorylation of CCR5”. The “expression of CCR5 on the cell surface” value in the test with CCR5 [6] is “downregulated”. Further, in the test with monocytes [4], the “Ca2+ mobilization” value is reported as “induced a transient rise in Ca^2+”.

B2: MIP-1β: chemokine, CCR5 agonist (protein)
chain: APMGSDPPTACCFSYTARKLPRNFVVDYYETSSLCSQPAVVFQTKRSKQVCADPSESWVQEYVYDLELN
As to B2, in the test with CCR5 [2], the “time of maximal CCR5 phosphorylation” value was found to be 1 min and the “serine phosphorylation of CCR5” value was “rapidly phosphorylated”. In addition, the “expression of CCR5 on the cell surface” value in the test on CCR5 [6] was “downregulated”. In the test on monocytes [4], the “Ca2+ mobilization” value was “poor inducer of Ca^2+ flux”.

B3: SAA: serum amyloid A, recombinant, purchased from Pepro Tech (protein, UniProt P0DJI8 19-122, looked up)
Serum amyloid A-1 protein: RSFFSFLGEAFDGARDMWRAYSDMREANYIGSDKYFHARGNYDAAKRGPGGAWAAEVITDARENIQRFFGHGAEDSLADQAANEWGRSGKDPNHFRPAGLPEKY
For the molecule B3, in the test on CCR5 [2], the “serine phosphorylation of CCR5” value was “significant and dose-dependent phosphorylation of CCR5”.

B4: RANTES: chemokine that activates multiple receptors including CCR5 (protein, UniProt P13501 24-91, looked up)
C-C motif chemokine 5: SPYSSDTTPCCFAYIARPLPRAHIKEYFYTSGKCSNPAVVFVTRKNRQVCANPEKKWVREYINSLEMS
For the molecule B4, in the test on CCR5 [2], the “time of maximal CCR5 phosphorylation” value is 1 min and the “serine phosphorylation of CCR5” value is listed as “rapidly phosphorylated”. Moreover, in the test on CCR5 [6], the “expression of CCR5 on the cell surface” value was “downregulated”. Besides, in the test with monocytes [4], the “Ca2+ mobilization” value is “induced a transient rise in Ca^2+; also recorded: significant Ca^2+ mobilization”.
